According to patent publication US9283300B2, “Use of midkine protein and the protein-containing medical device” (GENERAL REGENERATIVES, LTD, priority 2009, dated 2016):

Key:
[1] = tested on: ACLT-induced rat knee cartilage damage; assay: Osteoarthritis induced by anterior cruciate ligament transection (ACLT) of rat knee, intra-articular rhMK; assay type: in vivo, SD rats
Protocol: Method. 7-week-old male SD rats (250-330 g weight) were anesthetized with 3% pentobarbital sodium (30 mg/kg) by intraperitoneal injection. After anesthesia, the skin was prepared on both sides of the knees. With conventional surgical sterilization and under sterile conditions, the skin and subcutaneous tissue of the knees was cut open from the middle of front knee. The joint capsule was cut along the inner side of the white patellar tendon resulting in patellar dislocation. The anterior cruciate ligament was identified and cut with ophthalmic scissors. The knee was straightened, the patella was relocated, and the wound was sutured layer by layer. Amikacin (100,000 U/ml, injection concentration of 10 mg/kg, a dose of 1 μl/10 g body weight) was injected every day for 4 days to prevent the wound site infection. 14 weeks after the surgery, saline or rhMK was injected into the knee-articular cavity. The rats in sham group without ACLT surgery were not treated; The rats in the ACLT/saline group were injected with 100 μl saline; The rats in ACLT/rhMK-L group were injected with 100 μl rhMK (58.3 μg/kg); In ACLT/rhMK-H group, 100 μl rhMK (525 μg/kg) was given. The injections were given three times one week and continued for two weeks. The rats were maintained in cages with free movement. The rats were sacrificed 2 or 6 weeks after the initiation of the treatments. […]

[2] = tested on: dedifferentiated rat chondrocytes in high-density culture; assay: Redifferentiation of dedifferentiated chondrocytes in high-density culture (Col2a1 expression); assay type: cell-based
Protocol: 5. High density culture of chondrocytes. The chondrocytes were harvested and suspended in DMEM containing 10% FBS. The cells were seeded at 4×10^5 cells/well into a 24-well plate, and experiment was divided into two groups: control group and experimental group (with 3 μg/m. 1 rhMK). When the cells reached confluence, they were cultured for additional 14 days. The culture medium was changed every two days. After the culture, some of the cells were collected for RNA extraction, and some were treated with trypsin and 0.2% type II collagenase at 37° C. for 30 min. The cells were cytospined onto glass slide and stored at −80° C. 6. Immunohistochemical staining. The cytospined glass slides covered with the cultured chondrocytes under various conditions were stored at −80° C. They were fixed in cold acetone for 10 min, treated sequentially in PBS for 5 min, in 3% H2O2 (in ddH2O) for 10 min at room temperature, and finally in ddH2O for 5 min. The slides were covered with 5% BSA (bovine serum albumine) for 20 min at room temperature. The excess serum was removed and the sections were covered with antibody against type II collagen (dilution 1:100) for 30 min at 37° C. […] RNA extraction and semi-quantitative PCR. […] PCR products were separated on 1.5% (w/v) agarose gels and quantified after staining with ethidium bromide in comparison with internal control gene expression of β-actin.

[3] = tested on: partial-thickness injury of rabbit knee cartilage; assay: Partial-thickness cartilage defect of adult rabbit knee joint, intra-articular rhMK; assay type: in vivo, New Zealand white rabbits; conditions: adult rabbit knee cartilage partial-thickness injury model, 4 and 9 weeks after surgery, versus saline side
Protocol: Method. 9˜10-month-old male New Zealand white rabbits (3.0˜3.5 kg weight) were anesthetized with 3% pentobarbital sodium (30 mg/kg) by ear vein injection. After anesthesia, the skin was prepared on both sides of the knees. With conventional surgical sterilization and under sterile conditions, the inner side of the knees was cut to expose the femoral condyle surface. A hand-drill was used to make a partial-thickness cartilage injury of 3 mm in diameter on the femoral condyle surface. The partial-thickness injury was created by the criterion of no bleeding in the injured cartilage hole. The wound was sutured with 4-0 lines. 400,000 units penicillin was injected every day for one week to prevent the wound site infection. 24 h after the surgery, normal saline or rhMK was injected into the knee-articular cavity. Partial-thickness cartilage damages were created on both rabbit knees. One knee received 0.5 ml saline as control side, while 0.5 ml rhMK was given into the other knees as treatment side. The injections were given three times a week, for 2 weeks totally. The rabbits were kept in cage and allowed freedom of movement without the knee fixed. 4 and 9 weeks after the surgery, rabbits were sacrificed. The knee-joint cartilage tissues were removed for routine biopsy, H&E, and toluidine blue staining, and their histological changes were analyzed under microscope.

B1: rhMK: recombinant human midkine mature protein (SEQ ID NO.1) expressed in E. coli and purified by ion-exchange chromatography (protein, listed as Homo sapiens)
chain: MKKKDKVKKGGPGSECAEWAWGPCTPSSKDCGVGFREGTCGAQTQRIRCRVPCNWKKEFGADCKYKFENWGACDGGTGTKVRQGTLKKARYNAQCQETIRVTKPCTPKTKAKAKAKKGKGKD
- histological scores ([1]; ACLT/rhMK groups (58.3 and 525 μg/kg intra-articular) versus ACLT/saline group, P<0.05 Kruskal-wallis Test): statistically lower than that of the ACLT/saline group
- regenerated cartilage layer thickness (histology) ([1]; ACLT/rhMK groups versus ACLT/saline group, 18 weeks after ACLT surgery): significantly thicker than that of ACLT/saline group
- effect on Col2a1 re-expression ([2]; P3 fibrochondrocytes cultured in high-density): no effect
- Col2a1 expression level in high-density cultures with rhMK ([2]; P6 articular chondrocyte and P3 auricular chondrocyte): significantly inhibited
- repair of injured cartilage (histology) [3]: repairs the injured cartilage with regenerated cartilage tissues
